Columns and labels:
OC2 DNA-binding domain [1] = target: T1, OC2 DNA-binding domain (UniProt O95948 330-485); experiment: SPR
T1 sequence: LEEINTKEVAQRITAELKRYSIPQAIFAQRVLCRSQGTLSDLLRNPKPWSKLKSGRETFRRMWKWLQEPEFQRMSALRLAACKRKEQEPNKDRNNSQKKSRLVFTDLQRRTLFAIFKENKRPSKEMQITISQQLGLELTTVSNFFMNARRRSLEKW

OC2 DNA-binding domain [2] = target: T1, OC2 DNA-binding domain; experiment: SPR; remark: listed apart in the source

B1: UGT2B15 promoter 20 bp WT (dsDNA)
DNA 1: TAACTTGATTGATTTTTCCT
DNA 2: AGGAAAAATCAATCAAGTTA
Kd (OC2 DNA-binding domain [1]): 1.13 ± 0.01 nM

B2: UGT2B15 promoter 20 bp mutant (dsDNA)
DNA 1: TAACTTGGCTGTCTTTTCCT
DNA 2: AGGAAAAGACAGCCAAGTTA
binding result (OC2 DNA-binding domain [2]): no binding

Reference: article PMC11260453
